Test results reported in patent US6989369B2, “Kunitz domain peptides” (Dyax Corp., priority 2003, dated 2006).
Values belong to the molecule of their own block, whether it stands above or below them. Positions of bridges follow the written chain, without caps; N, C: chain ends. No end group written: not given here.

Experiments:
[1] = Clinical testing of DX-88 for hereditary angioedema (HAE); format: in vivo, human; settings: treatment of hereditary angioedema, initial data
HNE = target: T1, HNE (Homo sapiens, UniProt P08246); assay: HNE-neutralizing activity expected for doubly fused protein; format: biochemical; settings: expected value, protein not tested
T1 sequence (P08246 30-267): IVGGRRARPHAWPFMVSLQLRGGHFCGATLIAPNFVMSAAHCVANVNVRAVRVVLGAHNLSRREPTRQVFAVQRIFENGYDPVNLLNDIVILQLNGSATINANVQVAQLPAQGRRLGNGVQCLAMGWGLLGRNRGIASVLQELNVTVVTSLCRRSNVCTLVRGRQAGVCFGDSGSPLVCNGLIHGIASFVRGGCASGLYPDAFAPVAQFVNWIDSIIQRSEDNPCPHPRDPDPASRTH

[2] = rabbit
Excerpt: After radiolabeling, the two labeled protein preparations were purified from unbound label by size exclusion chromatography (SEC). Fractions from the SEC column having the highest radioactivity were pooled. The purified, radiolabeled preparations were characterized for specific activity by scintillation counting and for purity by SEC using a Superose-12 column equipped with an in-line radiation detector.
New Zealand White rabbits (ca. 2.5 Kg) were used for clearance measurements, with one animal each used for of the two labeled protein preparations. The radiolabeled preparation was injected into the animal via an ear vein. One blood sample was collected per animal per time point with early time points at approximately 0, 7, 15, 30, and 90 minutes and later time points at 4, 8, 16, 24, 48, 72, 96, 144, 168, and 192 hours. Samples (about 0.5 ml) were collected into anticoagulant (EDTA) tubes. Cells were separated from the plasma/serum fraction by centrifugation. The plasma fraction was divided into two aliquots. One plasma aliquot was stored at −70° C. and the other aliquot was kept at 4° C. for immediate analyses. Sample analyses included radiation counting for clearance rate determinations and SEC chromatography for in vivo stability.

[3] = about 840 mg, 80 open-heart surgery patients; cited from earlier work
[4] = after 8 days of treatment; cited from earlier work

Molecule: DX-88: Kunitz domain derived from the first Kunitz domain of human LACI, inhibits human plasma kallikrein; SEQ ID No.: 48 (EAMHSFCAFKADDGPCRAAHPRWFFNIFTRQCEEFIYGGCEGNQNRFESLEECKKMCTRD; DX-88 Kunitz domain peptide)
safety and efficacy in the clinic [1]: safe and effective

HNE-neutralizing activity relative to DX890 (HNE): ~16%
Molecule: Dx890-HA-Dx890: albumin fused at both termini to DX-890 via (GGS)4GG linkers; SEQ ID No.: 75

Molecule: EACNLPIVRGPCIAFFPRWAFDAVKGKCVLFPYGGCQGNGNKFYSEKECREYCGVP (disulfide 3-53, 12-36, 28-49) [DX-890]
in vivo stability, SEC analysis of plasma [2]: relatively rapid association of label with higher molecular weight plasma components
% α ([2]; in vivo): 75%
% β ([2]; in vivo): 25%
Clearance Times T1/2α ([2]; in vivo): 24 s

Molecule: bovine pancreatic trypsin inhibitor [BPTI]
decrease of mean amount transfused [3]: 74%
reduction of blood loss [3]: almost half

B1: Pulmozyme: a recombinant human deoxyribonuclease which reduces mucus viscoelasticity by hydrolyzing DNA in sputum (protein, UniProt P24855 23-282, looked up)
Deoxyribonuclease-1: LKIAAFNIQTFGETKMSNATLVSYIVQILSRYDIALVQEVRDSHLTAVGKLLDNLNQDAPDTYHYVVSEPLGRNSYKERYLFVYRPDQVSAVDSYYYDDGCEPCGNDTFNREPAIVRFFSRFTEVREFAIVPLHAAPGDAVAEIDALYDVYLDVQEKWGLEDVMLMGDFNAGCSYVRPSQWSSIRLWTSPTFQWLIPDSADTTATPTHCAYDRIVVAGMLLRGAVVPDSALPFNFQAAYGLSDQLAQAISDHYPVEVMLK
effect on pulmonary function [4]: increase FEV1 and FVC
